According to IntAct's records for PubMed 22705791:

B1: Double-strand break repair protein MRE11 (Saccharomyces cerevisiae), P32829 (parent)
chain: MDYPDPDTIRILITTDNHVGYNENDPITGDDSWKTFHEVMMLAKNNNVDMVVQSGDLFHVNKPSKKSLYQVLKTLRLCCMGDKPCELELLSDPSQVFHYDEFTNVNYEDPNFNISIPVFGISGNHDDASGDSLLCPMDILHATGLINHFGKVIESDKIKVVPLLFQKGSTKLALYGLAAVRDERLFRTFKDGGVTFEVPTMREGEWFNLMCVHQNHTGHTNTAFLPEQFLPDFLDMVIWGHEHECIPNLVHNPIKNFDVLQPGSSVATSLCEAEAQPKYVFILDIKYGEAPKMTPIPLETIRTFKMKSISLQDVPHLRPHDKDATSKYLIEQVEEMIRDANEETKQKLADDGEGDMVAELPKPLIRLRVDYSAPSNTQSPIDYQVENPRRFSNRFVGRVANGNNVVQFYKKRSPVTRSKKSGINGTSISDRDVEKLFSESGGELEVQTLVNDLLNKMQLSLLPEVGLNEAVKKFVDKDEKTALKEFISHEISNEVGILSTNEEFLRTDDAEEMKALIKQVKRANSVRPTPPKENDETNFAFNGNGLDSFRSSNREVRTGSPDITQSHVDNESRITHISQAESSKPTSKPKRVRTATKKKIPAFSDSTVISDAENELGDNNDAQDDVDIDENDIIMVSTDEEDASYGLLNGRKTKTKTRPAASTKTASRRGKGRASRTPKTDILGSLLAKKRK
partner: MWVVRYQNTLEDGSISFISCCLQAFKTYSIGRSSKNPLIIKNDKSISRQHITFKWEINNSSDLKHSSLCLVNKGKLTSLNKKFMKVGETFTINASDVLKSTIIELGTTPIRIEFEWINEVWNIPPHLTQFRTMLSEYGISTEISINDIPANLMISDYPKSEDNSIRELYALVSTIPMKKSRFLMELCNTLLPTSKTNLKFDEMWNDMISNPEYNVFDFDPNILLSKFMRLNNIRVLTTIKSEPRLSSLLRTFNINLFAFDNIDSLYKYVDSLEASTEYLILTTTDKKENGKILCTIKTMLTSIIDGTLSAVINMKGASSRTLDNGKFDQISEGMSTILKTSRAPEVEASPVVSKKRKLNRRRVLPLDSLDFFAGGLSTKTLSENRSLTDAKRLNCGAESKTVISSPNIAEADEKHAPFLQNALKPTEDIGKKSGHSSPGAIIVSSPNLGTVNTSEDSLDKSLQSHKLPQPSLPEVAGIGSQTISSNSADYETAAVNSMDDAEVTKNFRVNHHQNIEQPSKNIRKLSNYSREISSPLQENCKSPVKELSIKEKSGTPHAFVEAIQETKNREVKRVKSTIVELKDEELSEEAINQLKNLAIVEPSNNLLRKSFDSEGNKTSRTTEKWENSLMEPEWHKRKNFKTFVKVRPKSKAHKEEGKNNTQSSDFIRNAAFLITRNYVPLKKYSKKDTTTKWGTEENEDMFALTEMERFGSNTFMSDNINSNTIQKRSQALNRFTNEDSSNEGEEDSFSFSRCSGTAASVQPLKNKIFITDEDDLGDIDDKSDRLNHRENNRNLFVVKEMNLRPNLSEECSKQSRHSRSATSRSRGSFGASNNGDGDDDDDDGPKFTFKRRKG

Variants of: B1
Details: with xrs2_yeast XRS2, P33301

Effect of a mutation on the interaction, disrupting interaction strength:
N113S
D109G
R76K
R76A
